Assay: yeast display, Sf9 membrane polyspecificity reagent, FACS + sequencing; frameworks hold sequencing errors
Outline: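 Sorting gates, low and high (top ~1%), were placed on anti-HA fluorescence to track expression and on streptavidin fluorescence to track reagent binding. A clone's polyreactivity label is taken from the gate it came out of. The reagent was 10% biotinylated, detergent-solubilized Sf9 membrane, applied for 1 hour at 4 °C to galactose-induced yeast display cells.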

Row | Sequence | polyreactivity (PSR sort gate)
1 | QVQLVESGGGLVQAGGSLRLSCAASGSTFHGNAMGWYRQAPGKERELVAAISRSGGSTYYADSVKGRFTISRDNAKNTVYLQMNSLKPEDTAVYYCAAETVYKWWYDYYYWGQGTQVTVSS | high polyreactivity
2 | QVQLVESGGGLVQAGGSLRLSCAASGFIFTYYAMGWYRQAPGKERELVAAISRIGGSTYYADSVKGRFTISRDNAKYTVYLQMNSLKPEDTAVYYCARYSWPLNKLAVDYWGQGTQVTVSS | high polyreactivity
3 | QVQLVESGGGLVQAGGSLRLSCAASGLIFGNYAMGWYRQAPGKERELVAAITSTGITYYADSVKGRFTISRDNAKNTVYLQMNSLKPEDTAVYYCNADYYRHSLDYDYVGYDYWGQGTQVTVSS | low polyreactivity
4 | QVKLVESGGRLVQAGGSLRLSCAASGSIFYYYAMGWYRQAPVKERELVAAITNYADSVKGRFTISRDNAKNTVYLQMNSLKPEDTAVYYCAADWWRVEMDYWGQGTQVTVSS | low polyreactivity
5 | QVQLVESCGGLVQAGGSLRLSCAASGSTYAMGWYRQAPGKERELVASITSRGGSTYYADSVKGRFTISRDNAKNTVYLQMNSLKPEDTAVYYCNRVYRYPYNYWGQGTQVTVSS | high polyreactivity
6 | QVQLVESGGGLVQAGGSLRLSCAASGRIFGIYAMGWYRQAPGKERELVAAISYSGGSTYYADSVKGRFTISRDNAKNTVYLQMNSLNPEDTAVYYCNADYYASYYPYYSIRLDYWGQGTQVTVSS | low polyreactivity
7 | QVHLVESGGGLVQAGGSLRLSCAAAGRTFSSYAMAWYRQAPWQERELVAAITSGGTTYYADSVKGRFTISRDNAKNTVDLQMNSLKAEDPAFYYCARRSYLYDSYLTKKKYYDYCGQGTQVTVSS | low polyreactivity
8 | QVQLVESGGGLVQAGCSLSLSCAASGITFRSYAKGWYRQAPGKERELVAAIRSGGSTSYADSVKGRFTISRDNAKYTVYLQMNSLKPEDTAVYYCAAGGYVPLPDITFWKFGYWGQGTQGTVSS | low polyreactivity
9 | QVQLVESGGGLVQAGGSLRLSCAASGFTFWDYAMGWYRQAPGKERELVATISVGGGSTYYADSVKGRFTISRDNSKNSVYLQMNSLKPEDTAVYYCAADRSYYLAGYDYWGQGTQVPVSS | low polyreactivity
10 | QVQLQESGGGLVQAGASQRLSCAASGYIFYFQYMGWYRQAPGKEREFVAAISDGANTNYADSVKGRFTISRDNAKNTEYLQMNSLKPEDTAVYYCAVYADENYYYIYWGQGTQVTVSS | low polyreactivity
11 | QVQLVESVGGLVQEGGTLRLSCAASGSTFEVYTMGWYRQAPGKERELVAAITKNGGTTYYADSVKGRFTISRDNAKNTVYLQMNSLKPEDTAVYYCAVYYYSGYYYWDYYWGQGTQVTVSS | low polyreactivity
12 | QVQLVESGGGLVQAGGSLRLSCAASGSTFRAYAMGWYRQAPGKEREFVASISWSGGRTYYADSVKGRFTISRDNAKNTVYLQMNSLKPEDTAVYYCAVDLSTHDYDYWGQGTQVTVSS | low polyreactivity
13 | QVQLVESGGGLVQAGGSLRLTCAASGRIFIYYAMGWYRQAPGKERELVAAISWGGGRTYYADSVKGRFTISRDNAKNTVYLQMNSLKPEDTAVYYCAAGVYTGQHEYDYWGQGTQVTVSS | low polyreactivity
14 | QVQLVESGVGLVQAGGTLRLSCAASGFIFRKYGMGWYRQAPGKERELVAAIRFTGGSTRYADSVKGRFTISRDNAKNTVYLQMNSLIPEDTAVYYCNADRVYVRGRFTYDYWGQGTQVTVSS | low polyreactivity
15 | QVQLVESGGGLVQAGGSLRLSCAASGIILTQNAMGWYRQEPGKVRELVAAITESGARTYYADSVMGRFTISRDTAQNTVYLQMNSLKPEATAVYYCATEGPWGYDYWGIGTQVTVSS | low polyreactivity
16 | QVQLVESGGGLVQAGGSLRLSCAASGRTFRWNAMGWYRQAPGKERELVATIRSGDSTNYADSVKGRFTISRDNAKNTVYLQMNSLKPEDTAVYYCAAEGVSKVYWGYFGSYDYWGQGTQVTVSS | low polyreactivity
17 | QVQHVESGGGLVQAGGSLRLSCAASRSIFYYYAMGWYRQPPGKERELVAAISSDGTNYADSVKGRFTITRDNAKNTVYLQMNSLNPEDTAVYYCAKDHCTTSYDEGDYWGQGTQVTVSS | low polyreactivity
18 | QVQLVESGGGLFQAGGTLRLSCAASGRIFVYYAMGWYRQAPGKERELVASITTGGRTYYADSVKGRFTISRDNAKNTVYLQMNSLKPEDTAVYYCAARKYSYTWYDYWGQGTQVTVSS | high polyreactivity
19 | QVQLVESGGGLVQAGGSLRLSCAASGRIFATNAMGWYIQAPGKERELVAAISWDGGSTYYADSVKGRFTISRDNAKNTVYLQMNSLKPEDTAVYYCNKVLYYAYDYWGQGTQVTVSS | low polyreactivity
20 | QLQLVESVGGLVHAGGSLRLSCAASGSTFVLYAMGWYRQAPGKERELVATITTSGARTHYADSVKGRFTISRDNAKNTVYLQMNRLKPEDTAVYNCAAESYWTGDDYWGQGTQVTVSS | low polyreactivity
21 | QVQLEESGGGLFQAGGSLRLSCAASGSTIFSNAMGWYRQAPGKAREVVAAITSDGGTYYADSVKGRFTISRDNAKKTVYLQMNSLKPEDTAVYYCNVGSFTGHSYGFGYWGQGTQVTVSS | low polyreactivity
22 | QVHLVESGGGLVQAGGSLRLSCAASGRTFDHNTMGWYRQAPGKERELVAAISWSGGTTYYADSVKGRFTISRDNAKNTVYLQMNSLKPEDTAVYYCAADRSPGSYGYQYDYWGQGTQVTVSS | low polyreactivity

Row | Sequence | polyreactivity (PSR sort gate)
23 | QVQLQESGGGLVQAGGSLRLRCAASRNNSGSSDLGWYHQAPGKEREFVASITSGGTTYYADSVKGRFTISRDNAKNTVYLQMNSLKPEDTAVYYCAVGDPADAEFGYWGQGTQVTVSS | low polyreactivity
24 | QVQLQESGGGLEQAGGSLRMSCAANGNIFDSDIVGRYRQAPGKKRELVASITDGGITNYADSVKGRFTISRDNAKYTVYLQMNSQNPVDTAVYYCAAIAYPDIPTYFDYDSDFFYWGQGTQVTVSS | high polyreactivity
25 | QVQLVESGGGLVQAGGSLRLSCAASGNIFFSNAMGWYRQAPGKERELGASISQSGGSTYYADAVKGRFTISRDNAKNTVYLQMNSLKPEDTAVYYCAATQVRRGPAWGRDYWGQGTQETVSS | low polyreactivity
26 | QVQLVESGGGLVQAGGSLRLSCAASGFTFVGNAMGSYRQAPGKERELVAAITWSGGRTYYADSVKGRFTISRDNAKNTVYLQMNSLKPEDTAVYYCNKLVERWYGYWGQGTQVTVSS | high polyreactivity
27 | QVQLVESGGGLVQAGGSLRLSCAASGRILGFYAMGWYRQAPGKERELVDSINWSGTRTYYADSVKARFTISRDNAKNTVYLQLNSLKPEDTAVYYCAAERYPYGVTYSKLDYWGQGTQVTVSS | high polyreactivity
28 | QVQLVESGGGLVQAGGSLRLSCAASGITFYIYAMGWYRQAPGKERELVATISWSDGRTYYADSVKGRFTISRDNAKNTVYLQINSLKPEDTAVYYCAADWWYYQFDYEYWGQGTQVTVSS | low polyreactivity
29 | QVQLVESGGGLVQAGGSLRLSCAASGSTFPPYAMGWYRQAPGKERELVADITRRGASTYYADSVKGRFTISRDNAKNTVYLQMNSLKPEDTAVYYCNAGRSRRYRIGRYYYWGQGTQVTVSS | high polyreactivity
30 | QVQLVESGGGLVQAGGSLRLICAGSGRIFYRYPMGWYRQAPGKERELVAAITVRGGSTYYADSVKGRFTISRDNAKNTVYVQRHSLKPEDTALYYCATGLGVLYDYWYEVEFDYWGQGTQVSVSS | low polyreactivity
31 | QVQLEESGGGLFQAGGSLRLSCAASGRIFYGYAMGWSRQAPGKEMELVAAISSSGGSTYYADSVKGRFTISRDNAKNTVYLQRNSLKPEDTAVYYCNAKRYRPGYWYDYWGQGTQVTVSS | high polyreactivity
32 | QVQLVESGGGLVQAGGSLRLSCAASGSIFGVYDMGWYRQAPGKERELVAVINSNGGSTYYADSVKGRFTISRDNAKNTVYLQMNSLNPEDTAVYYCAADYQSYVYIGYGYWGQGTQVTVSS | low polyreactivity
33 | QVQLVESGGGLVQAGGSLRLICAASGSIFRYYAMGWYRQAHGKERELLAAISYSGGSTYYADSVKGRFTISRDNAKNTVYLQMNSLKPEDTAVYYCAKGRHTTRASIAFNYWGQGTQVTVSS | high polyreactivity
34 | QVQLVESGGGLVQAGGSLRLSCAASGRTFQEYAMGWYRQAPGKERELVADISDGGSTNYADSVKGRFTISRDNAKNTVYLQMNSLKPEDTAVYYCAADQYHGVGINFRSDYDYWGQGTQVTVSS | low polyreactivity
35 | QVQLVESGGGLVQAGGSLRLSCAASGFNFYCNAMGWYRQAPGKERELVATIRYRGGRTYYADSVKGRFTISRDNEKNTVYLQMNSLKPEDTAVYYCNTRSVYHRYDYDYWGQGTQVTVSS | high polyreactivity
36 | QVQLVESGGGLVQAGGSLRISCAASGNILFSYAMGWYRQAPGKERELVAAISRSGGSTYYADSVKGRFTISRDNAKNTVYLQMNSLKPEDTAVYYCNTYSIAYYSPGYDYWGQGTQVTVSS | high polyreactivity
37 | QVQLVESGGGLVQAGGSLRLSCAASGSTFRYNAMGWYRQPPGKERELVAAISSGGSTNYADSVKGRFTISRDNAKNTVYLQMNSLKPEDTAVYYCAATRPRIPVYQNNYGYWGQGTQVTVSS | high polyreactivity
38 | QVQLVESGGGLVQAGGSLRLSCAASGRIFIYNAMGWYRPAPGKERELVAAINRSGVSTHYADSVKGRFTISRDNEKNTVYLQMNSLKPEDTAVYYCARTVYGARSYDYWGQGTQVTVSS | low polyreactivity
39 | QVQLVESGGGLVQAGGSLRLSCAASGRTFRDNAMGWYRQAPGKERELVAAISRRGGSTYYADSVKGRFTISRDNAKNTVYLQMNSLKPEDTAVYYCAADRPDGWVDYWGQGTQVTVSS | low polyreactivity
40 | QVQLVESGGGLVQAGGSLRLSCAASGSNYGFYAMGWYRKAPGKERELVAVISSDGSTNYADSVKGRFTISRDNAKNTVYLQMNSLKPEDTAVYYCAADWSITYGDGGYWGQGTQVTVSS | low polyreactivity
41 | QVQLVESGGGLVQAGGSLRLSCAASGSIFNGYVMGWYRQAPGKERELVAAISGSGGRTYYADSVKGRFTISRDNAKNTVYLQMNSLKPEDTAVYYCAAYPDLRDSRRIRYGYNYWGQGTQVTVSS | high polyreactivity
42 | QVQLVESGGRIVQAGGSLRLSCAASGRLFDRYAMGWYRQAPGQERELVAAISWSAGSTYYADSVKGRFTISRDNAKNTVYLQMNSLKPEDTAVYYCAVPARGTFLLRDGGRAEFDYWGQGTQVTVSS | low polyreactivity
43 | QVQLVESGGRLVQAGGSLRLSCAASGRIYTPYAMGWYRQAPGTERELVAAISTIGGTTYADSVKGRFTISRDNAKNTVYLQMNSLKPEDTAVYYCNTRRTGRRSTTPGDYWGQGTQVTVSS | high polyreactivity
